Biological target: apoptosis-inducing factor, mitochondrial (AIFM1) (human) (UniProt O95831)
Test: cross-linking

stoichiometry N: 2
Substance: apoptosis-inducing factor, mitochondrial (AIFM1) (from UniProt O95831 103-613) (natural protein)
